This data set concerns the target T1, Endonuclease V (EcEndoV), wild-type (Escherichia coli) (UniProt P68739).
T1 sequence: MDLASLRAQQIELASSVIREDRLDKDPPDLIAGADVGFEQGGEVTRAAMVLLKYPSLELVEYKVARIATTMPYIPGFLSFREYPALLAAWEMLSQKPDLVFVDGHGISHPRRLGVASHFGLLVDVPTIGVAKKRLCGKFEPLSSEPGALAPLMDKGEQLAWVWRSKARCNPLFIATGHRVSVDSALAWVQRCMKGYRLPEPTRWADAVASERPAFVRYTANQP
Kind of data set: EMSA. The note with it: 5 mM Mg2+; pattern similar to A-RNA; one inosine; EMSA: 25 mM sodium phosphate pH 6.5, 50-300 mM NaCl (500 mM in Fig. S17E), 1 mM DTT, 5 mM MgCl2, 30 min on ice, 2 pmol RNA in 10 ul, 12% native gel in TBE at …. (In EMSA bound probe runs differently from free probe, usually more slowly.)

“1I-RNA (single-edited 20-mer dsRNA, one I:U pair)” showed a binding signal (fold KD vs I-RNA) of 2.
